Entries after “also recorded” stand apart in the source; their conditions may differ.
Key:
[1] = test system: atherosclerosis; conditions: mice fed high-fat western-diet; cited from earlier work
[2] = test system: J774 macrophages; conditions: background statement; cited from earlier work
[3] = α-helical content (secondary structure) of peptides with and without acrolein; format: physicochemical; conditions: for α-helical content: 10 mM phosphate buffer (pH=7.4); for α-helical content, comparison in words: FIG. 2 legend, vs ATI-5261 control or vs untreated peptide
Experimental: FIG. 2 provides data showing the % α-helical content of ATI-5261 and the K5, 25→R analog peptide. Peptides in 10 mM phosphate buffer (pH=7.4) were analyzed. […] Biosyn. denotes source (commercial vendor) used to synthesize peptides (same for all peptides).

[4] = test system: J774 macrophages; assay: Cholesterol efflux from cAMP-treated J774 macrophages (ABCA1 cholesterol efflux); format: cell-based; conditions: for change of cholesterol efflux activity upon exposure to acrolein: excess molar acrolein; for cholesterol efflux activity: no oxidant exposure, lipid-free peptides, cAMP-treated J774 macrophages
Experimental: FIG. 1 provides data showing the sensitivity of ABCA1 efflux peptide ATI-5261 and an analog to acrolein. ATI-5261 was engineered with arginine (R) in place of lysine (K) at positions 5 and 25 (K5, 25/R), creating an oxidation-resistant analog. […] Panel B. Dependence of cholesterol efflux on ABCA1 expression, as judged with and without cAMP (no oxidant exposure). Peptides were used in lipid-free form at […]. Panel C. Peptides were incubated (37° C., 24 h) with acrolein at a molar ratio of 50:1 (acrolein:peptide) in the presence of DTPA; excess aminoguanidine was added to terminate reactions and peptides dialyzed to PBS. Cholesterol efflux (8 h) was assessed using cAMP-treated J774 cells and peptides at 2 mg/ml. Values are % of control efflux with peptides not treated with acrolein.
Panel D. Impact of varying molar ratio of acrolein relative to ATI-5261 on cholesterol efflux from cAMP treated J774 cells.
Suitable cholesterol efflux assays are described in, e.g., Bielicki, J. K and Oda, M. N., Biochemistry, 41:2089-2096 (2002); Jia et al., Biochem. Biophys. Res. Common., 297:206-213 (2002). In some embodiments, a polypeptide known to mediate cholesterol efflux (e.g., helix 9/10 of Apo A-I) is used to screen for additional mediators of cholesterol efflux in a cell based assay. For example, cell lines in which cholesterol efflux can be enhanced using a cAMP analog that up-regulates ABCA1 protein expression (e.g., J774 macrophages) can conveniently be used to assess the ability of a polypeptide of the present invention to mediate cholesterol efflux. The cells are incubated with labeled cholesterol (e.g., [^3H]cholesterol) under conditions appropriate for cholesterol uptake by the cells. Thus, cAMP or cAMP analogs (e.g., CPT-cAMP) are incubated with the cells for a suitable time before the initiation of cellular cholesterol efflux, i.e., prior to contacting the cells with a test polypeptide. Measurement of labeled cholesterol appearing in the medium is used to determine the cholesterol efflux mediating activity of the test polypeptide.

[5] = SDS-PAGE analysis of peptides following exposure to acrolein (cross-linking); format: physicochemical; conditions: 20-fold molar excess of acrolein, 37° C., 20 h
Experimental: Peptides ATI-5261 and K5,25 were exposed to 20-fold molar excess of acrolein or buffer alone and incubated 37° C. for 20 h. Lane 1—MW standards (kDa); lane 2, K5,25→R peptide exposed to acrolein; Lane3, ATI-5261 exposed to acrolein; lane 4, K5, 25→R peptide buffer control; Lane 5, ATI-5261 buffer control. Peptide loads were 3 μg/well.

[6] = test system: macrophage reverse cholesterol transport; assay: Macrophage reverse cholesterol transport upon exposure to oxidative stress; format: in vivo; conditions: vs ATI-5261
[7] = molecular target: ABCA1 (UniProt P41233 1-2261, limits assumed); assay: cell-based or functional assay
ABCA1, sequence (P41233 whole entry): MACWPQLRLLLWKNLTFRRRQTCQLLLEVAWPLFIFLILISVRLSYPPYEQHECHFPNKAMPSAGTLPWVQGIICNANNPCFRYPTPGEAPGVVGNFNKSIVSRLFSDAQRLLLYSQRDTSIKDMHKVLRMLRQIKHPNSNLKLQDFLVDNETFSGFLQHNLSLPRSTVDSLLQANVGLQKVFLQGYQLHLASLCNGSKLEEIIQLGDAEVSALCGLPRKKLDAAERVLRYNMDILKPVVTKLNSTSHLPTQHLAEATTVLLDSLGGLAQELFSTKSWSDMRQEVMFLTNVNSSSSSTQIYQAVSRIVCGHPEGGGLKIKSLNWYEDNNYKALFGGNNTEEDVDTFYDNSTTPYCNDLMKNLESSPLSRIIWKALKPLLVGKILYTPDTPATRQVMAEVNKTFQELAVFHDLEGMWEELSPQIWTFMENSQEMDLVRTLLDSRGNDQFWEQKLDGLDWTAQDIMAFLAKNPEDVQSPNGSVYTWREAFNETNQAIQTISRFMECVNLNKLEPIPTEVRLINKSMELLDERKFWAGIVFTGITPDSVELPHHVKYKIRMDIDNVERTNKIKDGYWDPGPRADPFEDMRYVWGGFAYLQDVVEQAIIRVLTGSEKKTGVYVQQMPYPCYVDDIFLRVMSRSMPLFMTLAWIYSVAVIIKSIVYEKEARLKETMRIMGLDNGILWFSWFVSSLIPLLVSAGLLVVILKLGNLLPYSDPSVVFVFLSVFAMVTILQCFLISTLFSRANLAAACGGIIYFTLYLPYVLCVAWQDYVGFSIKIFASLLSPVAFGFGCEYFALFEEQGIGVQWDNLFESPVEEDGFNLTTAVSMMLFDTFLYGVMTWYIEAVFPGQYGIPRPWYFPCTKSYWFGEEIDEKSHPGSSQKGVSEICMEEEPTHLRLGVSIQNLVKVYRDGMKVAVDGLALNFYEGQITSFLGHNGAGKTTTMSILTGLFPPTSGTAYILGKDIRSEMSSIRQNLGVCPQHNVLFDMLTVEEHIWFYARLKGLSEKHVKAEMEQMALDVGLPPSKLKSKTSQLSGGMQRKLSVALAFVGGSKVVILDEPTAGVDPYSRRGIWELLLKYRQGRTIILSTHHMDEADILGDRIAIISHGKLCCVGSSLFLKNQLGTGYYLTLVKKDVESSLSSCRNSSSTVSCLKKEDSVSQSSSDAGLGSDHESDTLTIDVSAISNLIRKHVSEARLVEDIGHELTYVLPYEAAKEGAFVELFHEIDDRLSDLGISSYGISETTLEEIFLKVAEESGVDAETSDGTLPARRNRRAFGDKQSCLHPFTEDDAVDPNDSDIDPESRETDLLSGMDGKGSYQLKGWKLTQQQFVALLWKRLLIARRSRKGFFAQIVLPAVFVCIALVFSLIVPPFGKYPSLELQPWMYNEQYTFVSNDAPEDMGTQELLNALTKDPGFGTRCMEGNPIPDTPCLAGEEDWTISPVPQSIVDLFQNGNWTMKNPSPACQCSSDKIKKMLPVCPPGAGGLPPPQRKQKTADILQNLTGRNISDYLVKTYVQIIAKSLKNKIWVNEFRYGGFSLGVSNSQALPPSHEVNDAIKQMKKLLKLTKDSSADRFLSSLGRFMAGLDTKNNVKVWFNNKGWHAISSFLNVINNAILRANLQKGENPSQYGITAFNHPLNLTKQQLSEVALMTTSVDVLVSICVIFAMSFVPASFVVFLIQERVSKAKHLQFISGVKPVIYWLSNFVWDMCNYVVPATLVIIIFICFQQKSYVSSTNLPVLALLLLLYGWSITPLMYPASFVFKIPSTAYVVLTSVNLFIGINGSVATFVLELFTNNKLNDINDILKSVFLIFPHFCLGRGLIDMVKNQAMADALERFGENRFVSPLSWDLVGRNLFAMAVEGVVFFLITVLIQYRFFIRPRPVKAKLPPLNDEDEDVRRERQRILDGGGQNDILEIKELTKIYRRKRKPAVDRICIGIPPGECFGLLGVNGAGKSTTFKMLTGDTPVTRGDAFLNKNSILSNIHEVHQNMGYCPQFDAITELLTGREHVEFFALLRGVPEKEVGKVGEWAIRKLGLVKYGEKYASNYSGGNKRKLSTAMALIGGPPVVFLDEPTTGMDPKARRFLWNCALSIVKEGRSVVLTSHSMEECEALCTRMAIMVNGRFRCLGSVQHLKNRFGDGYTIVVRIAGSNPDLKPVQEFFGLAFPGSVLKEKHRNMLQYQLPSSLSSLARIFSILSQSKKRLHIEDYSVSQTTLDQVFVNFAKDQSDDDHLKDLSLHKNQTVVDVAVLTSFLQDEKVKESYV

| Molecule | effect on atherosclerosis [1] | molar potency for ABCA1 cholesterol efflux relative to native apoA-I [2] | α-helical content ([3]; +Acrolein) [%] | α-helical content, comparison in words [3] | α-helical content ([3]; no acrolein) [%] | change of cholesterol efflux activity upon exposure to acrolein [4] | cholesterol efflux activity [4] | cross-linking of the peptide after acrolein treatment [5] | augmentation of cholesterol efflux activity by acrolein ([4]; acrolein-treated peptide vs untreated peptide) [%] | cholesterol efflux activity ([4]; listed as K→R) | macrophage reverse cholesterol transport [6] | reduction of cholesterol efflux activity after acrolein exposure, molar acrolein:peptide ratio 5:1 [7] [%] | reduction of cholesterol efflux activity after acrolein exposure, molar acrolein:peptide ratio 10:1 [7] [%] | reduction of cholesterol efflux activity after acrolein exposure, molar acrolein:peptide ratio 20:1 [7] [%] |
| --- | --- | --- | --- | --- | --- | --- | --- | --- | --- | --- | --- | --- | --- | --- |
| EVRSKLEEWFAAFREFAEEFLARLKS (synthetic amphipathic alpha helix HDL mimetic peptide ATI-5261 susceptible to oxidation that stimulates ATP binding cassette protein ABCA1-dependent cholesterol efflux based on apolipoprotein AI (ApoA-I) alpha-helical motif) [26-mer prototype/parent HDL mimetic ABCA1 efflux peptide, oxidation susceptible, reference compound] | reduce substantial atherosclerosis | nearly the same molar potency as native apoA-I | 48.3 | significantly lower helical content | 72.7 | marked decrease in cholesterol efflux activity | stimulated cholesterol efflux (4 h) efficiently | substantial cross-linking | – | – | – | – | – | – |
| EVRSRLEEWFAAFREFAEEFLARLRS [K5,25→R, ATI-5261 with arginine in place of lysine at positions 5 and 25] | – | – | 72.6 | lower α-helical content compared to the ATI-5261 control; also recorded: increase in α-helical content | 56.8 | increased upon exposure to acrolein | stimulated cholesterol efflux (4 h) efficiently | – | ~70 | no effect on cholesterol efflux activity | greatly improved macrophage reverse cholesterol transport | – | – | – |
| EVRSKLEEWFAAFREFAEEFLARLKS [ATI-5261] | – | – | – | – | – | – | – | – | – | – | – | 50 | 70 | 93 |
